± gives the uncertainty stated by the source.
B1: Lysine-specific demethylase 5C, residues 319 to 373; numbered along this chain, P41229 (parent)
chain: AQFIESYVCRMCSRGDEDDKLLLCDGCDDNYHIFCLLPPLPEIPKGVWRCPKCVM

Variants of: B1
Assay: abundance fitness (aPCA) (normalised: wild type 0, dead -1); higher = more abundant; growth selection in yeast, the domain comes from the species named
Conditions: Homo sapiens

Q2I and Q2T are within error of each other in abundance fitness: 0.186 ± 0.37 for the first, 0.203 ± 0.2 for the second.

First: Q2L
Second: Q2G
The abundance fitness of the first is higher: -0.119 ± 0.11 for the first, -0.446 ± 0.21 for the second.

First: Q2F
Second: Q2W
The abundance fitness of the first is lower: -0.531 ± 0.26 for the first, -0.057 ± 0.21 for the second.

Q2H and Q2Y are within error of each other in abundance fitness: -0.187 ± 0.15 for the first, -0.053 ± 0.17 for the second.

Q2P and Q2K are within error of each other in abundance fitness: -0.141 ± 0.18 for the first, 0.247 ± 0.33 for the second.

Q2V and Q2R are within error of each other in abundance fitness: -0.153 ± 0.27 for the first, -0.271 ± 0.14 for the second.

Q2A and Q2C are within error of each other in abundance fitness: -0.273 ± 0.43 for the first, -0.446 ± 0.31 for the second.

Q2E and Q2N are within error of each other in abundance fitness: -0.258 ± 0.28 for the first, -0.019 ± 0.19 for the second.

Q2M and A1E are within error of each other in abundance fitness: -0.109 ± 0.24 for the first, -0.143 ± 0.26 for the second.

A1W and A1M are within error of each other in abundance fitness: -0.242 ± 0.34 for the first, 0.135 ± 0.47 for the second.

A1S and A1V are within error of each other in abundance fitness: -0.244 ± 0.19 for the first, -0.297 ± 0.15 for the second.

Compared with A1I, A1T is lower in abundance fitness: 0.146 ± 0.47 for the first, -0.704 ± 0.3 for the second.

A1L and A1D are within error of each other in abundance fitness: -0.331 ± 0.4 for the first, -0.009 ± 0.44 for the second.

C12E and C12A are within error of each other in abundance fitness: -0.797 ± 0.33 for the first, -0.99 ± 0.38 for the second.

C12S and C12W are within error of each other in abundance fitness: -0.855 ± 0.13 for the first, -0.853 ± 0.2 for the second.

C12P and C12H are within error of each other in abundance fitness: -0.52 ± 0.17 for the first, -0.825 ± 0.26 for the second.

C12K and C12F are within error of each other in abundance fitness: -0.435 ± 0.18 for the first, -0.731 ± 0.15 for the second.

C12M and C12L are within error of each other in abundance fitness: -0.669 ± 0.37 for the first, -0.344 ± 0.09 for the second.

First: C12I
Second: C12R
The abundance fitness of the first is lower: -1.14 ± 0.32 for the first, -0.586 ± 0.15 for the second.

C12N and C12T are within error of each other in abundance fitness: -0.713 ± 0.37 for the first, -0.683 ± 0.26 for the second.

First: C12G
Second: I4P
The abundance fitness of the first is lower: -0.756 ± 0.24 for the first, -0.118 ± 0.15 for the second.

Compared with I4A, I4Q is higher in abundance fitness: -0.188 ± 0.13 for the first, 0.451 ± 0.2 for the second.

Going from I4E to I4Y, the abundance fitness falls from -0.145 ± 0.19 to -0.687 ± 0.24.

I4F and I4K are within error of each other in abundance fitness: -0.098 ± 0.16 for the first, -0.033 ± 0.18 for the second.

I4V and I4T are within error of each other in abundance fitness: -0.019 ± 0.11 for the first, 0.201 ± 0.13 for the second.

I4W and I4D are within error of each other in abundance fitness: -0.287 ± 0.18 for the first, -0.058 ± 0.18 for the second.

First: I4M
Second: I4N
The abundance fitness of the first is higher: 0.115 ± 0.14 for the first, -0.35 ± 0.18 for the second.

I4G and I4C are within error of each other in abundance fitness: -0.302 ± 0.2 for the first, -0.106 ± 0.24 for the second.

I4L and I4H are within error of each other in abundance fitness: -0.338 ± 0.11 for the first, -0.111 ± 0.17 for the second.

Compared with I4R, V8N is higher in abundance fitness: -0.3 ± 0.13 for the first, 0.083 ± 0.22 for the second.

V8D and V8F are within error of each other in abundance fitness: -0.315 ± 0.19 for the first, -0.28 ± 0.24 for the second.

V8S and V8K are within error of each other in abundance fitness: 0.007 ± 0.1 for the first, 0.254 ± 0.19 for the second.

V8E and V8L are within error of each other in abundance fitness: -0.266 ± 0.18 for the first, -0.243 ± 0.11 for the second.

V8A and V8M are within error of each other in abundance fitness: -0.092 ± 0.097 for the first, -0.052 ± 0.15 for the second.

V8R and V8I are within error of each other in abundance fitness: -0.075 ± 0.098 for the first, -0.241 ± 0.14 for the second.

V8W and V8H are within error of each other in abundance fitness: -0.247 ± 0.16 for the first, -0.11 ± 0.12 for the second.

V8T and V8Y are within error of each other in abundance fitness: -0.039 ± 0.15 for the first, -0.157 ± 0.2 for the second.

V8P and V8C are within error of each other in abundance fitness: -0.12 ± 0.095 for the first, -0.258 ± 0.16 for the second.

V8Q and V8G are within error of each other in abundance fitness: -0.11 ± 0.15 for the first, -0.106 ± 0.12 for the second.

F3E and F3S are within error of each other in abundance fitness: -0.114 ± 0.2 for the first, 0.06 ± 0.1 for the second.

F3R and F3K are within error of each other in abundance fitness: 0.072 ± 0.12 for the first, 0.016 ± 0.14 for the second.

Compared with F3M, F3W is lower in abundance fitness: 0.095 ± 0.17 for the first, -0.639 ± 0.28 for the second.

First: F3N
Second: F3I
The abundance fitness of the first is higher: 0.182 ± 0.17 for the first, -0.17 ± 0.17 for the second.

F3C and F3Q are within error of each other in abundance fitness: -0.193 ± 0.14 for the first, -0.201 ± 0.18 for the second.

F3P and F3T are within error of each other in abundance fitness: -0.141 ± 0.2 for the first, -0.046 ± 0.17 for the second.

F3Y and F3D are within error of each other in abundance fitness: -0.043 ± 0.19 for the first, -0.418 ± 0.36 for the second.

F3A and F3G are within error of each other in abundance fitness: -0.12 ± 0.12 for the first, 0.022 ± 0.14 for the second.

F3V and F3H are within error of each other in abundance fitness: 0.042 ± 0.11 for the first, -0.095 ± 0.2 for the second.

F3L and E5R are within error of each other in abundance fitness: 0.005 ± 0.1 for the first, 0.046 ± 0.12 for the second.

E5Y and E5W are within error of each other in abundance fitness: -0.162 ± 0.18 for the first, -0.451 ± 0.24 for the second.

First: E5L
Second: E5N
The abundance fitness of the first is lower: -0.378 ± 0.12 for the first, 0.275 ± 0.19 for the second.

First: E5G
Second: E5V
The abundance fitness of the first is higher: -0.128 ± 0.13 for the first, -0.481 ± 0.11 for the second.

E5K and E5I are within error of each other in abundance fitness: 0.036 ± 0.19 for the first, -0.283 ± 0.17 for the second.

E5Q and E5T are within error of each other in abundance fitness: 0.02 ± 0.17 for the first, -0.078 ± 0.16 for the second.

E5M and E5H are within error of each other in abundance fitness: 0.145 ± 0.15 for the first, -0.263 ± 0.28 for the second.

E5S and E5P are within error of each other in abundance fitness: -0.125 ± 0.1 for the first, -0.435 ± 0.21 for the second.

E5D and E5C are within error of each other in abundance fitness: 0.054 ± 0.19 for the first, 0.046 ± 0.17 for the second.

C9S and C9F are within error of each other in abundance fitness: -0.82 ± 0.11 for the first, -0.659 ± 0.23 for the second.

C9R and C9H are within error of each other in abundance fitness: -0.827 ± 0.16 for the first, -0.798 ± 0.28 for the second.

C9A and C9V are within error of each other in abundance fitness: -0.797 ± 0.13 for the first, -0.792 ± 0.15 for the second.

C9D and C9Y are within error of each other in abundance fitness: -0.847 ± 0.23 for the first, -0.955 ± 0.22 for the second.

C9T and C9W are within error of each other in abundance fitness: -0.726 ± 0.15 for the first, -0.937 ± 0.28 for the second.

C9G and C9L are within error of each other in abundance fitness: -0.655 ± 0.15 for the first, -0.978 ± 0.19 for the second.

R10C and R10A are within error of each other in abundance fitness: -0.108 ± 0.49 for the first, -0.148 ± 0.12 for the second.

R10D and R10S are within error of each other in abundance fitness: -0.384 ± 0.33 for the first, -0.28 ± 0.24 for the second.

R10L and R10T are within error of each other in abundance fitness: 0.021 ± 0.21 for the first, 0.082 ± 0.29 for the second.

R10M and R10Y are within error of each other in abundance fitness: -0.036 ± 0.25 for the first, -0.175 ± 0.44 for the second.

R10Q and R10P are within error of each other in abundance fitness: -0.609 ± 0.45 for the first, -0.394 ± 0.29 for the second.

R10E and R10V are within error of each other in abundance fitness: -0.1 ± 0.28 for the first, -0.137 ± 0.16 for the second.

S6W and S6Y are within error of each other in abundance fitness: -0.414 ± 0.18 for the first, -0.1 ± 0.24 for the second.

S6Q and S6G are within error of each other in abundance fitness: -0.409 ± 0.22 for the first, -0.042 ± 0.15 for the second.

S6A and S6R are within error of each other in abundance fitness: -0.068 ± 0.19 for the first, 0.001 ± 0.11 for the second.

S6H and S6E are within error of each other in abundance fitness: -0.294 ± 0.23 for the first, -0.08 ± 0.21 for the second.

First: S6D
Second: S6M
The abundance fitness of the first is lower: -0.523 ± 0.37 for the first, 0.217 ± 0.13 for the second.

S6P and S6F are within error of each other in abundance fitness: -0.097 ± 0.17 for the first, -0.154 ± 0.14 for the second.

S6V and S6C are within error of each other in abundance fitness: -0.377 ± 0.19 for the first, -0.361 ± 0.19 for the second.

Compared with S6N, S6K is lower in abundance fitness: 0.183 ± 0.19 for the first, -0.295 ± 0.25 for the second.

First: S6I
Second: S6T
The abundance fitness of the first is lower: -0.445 ± 0.2 for the first, 0.148 ± 0.14 for the second.

First: Y7V
Second: Y7T
The abundance fitness of the first is lower: -0.121 ± 0.12 for the first, 0.199 ± 0.12 for the second.

Y7Q and Y7S are within error of each other in abundance fitness: -0.052 ± 0.18 for the first, 0.139 ± 0.091 for the second.

Y7M and Y7L are within error of each other in abundance fitness: 0.078 ± 0.2 for the first, -0.057 ± 0.1 for the second.

Y7H and Y7P are within error of each other in abundance fitness: -0.09 ± 0.16 for the first, -0.073 ± 0.17 for the second.

Y7D and Y7F are within error of each other in abundance fitness: 0.173 ± 0.48 for the first, -0.14 ± 0.26 for the second.

Y7R gave an abundance fitness of 0.14 ± 0.091.
